In US20230331827A1, “POTASSIUM CHANNEL INHIBITORS” (priority 2017, published 2023):

Biological target: trypsin
Assay: phage TRF, GlyAla mutant against parent clone

B1: KB_A11 GlyAla mutant (scFv on phage) (scFv, V domains shown)
VH: EVQLVESGGGLVRPGGSLRLSCAASGFTFSSYAMSWVRQAPGKGLEWVSAISGSGGSTYYADSVKGRFTISRDNTKNSLYLQMTSLRADDTAFYYCVKDFGPGYGTGWFDYWGPGTLVTVSS
VL: YLNWYQQKPGKAPKLLIYAAEICGAILMRCKQDSDCLAGCVCGPNGFCGPSSGIPARFSGSGYGTDFTLTINNIESEDAAYYFCLQHDNFPYTFGQGTKVEIKR
% reduction in binding signal: 100%
